What all share (test): cell_activity; PAM TTC; day 50
The target in one data set is T1, ELXR3-ZNF10 (#3.B) (synthetic construct).
T1 chain: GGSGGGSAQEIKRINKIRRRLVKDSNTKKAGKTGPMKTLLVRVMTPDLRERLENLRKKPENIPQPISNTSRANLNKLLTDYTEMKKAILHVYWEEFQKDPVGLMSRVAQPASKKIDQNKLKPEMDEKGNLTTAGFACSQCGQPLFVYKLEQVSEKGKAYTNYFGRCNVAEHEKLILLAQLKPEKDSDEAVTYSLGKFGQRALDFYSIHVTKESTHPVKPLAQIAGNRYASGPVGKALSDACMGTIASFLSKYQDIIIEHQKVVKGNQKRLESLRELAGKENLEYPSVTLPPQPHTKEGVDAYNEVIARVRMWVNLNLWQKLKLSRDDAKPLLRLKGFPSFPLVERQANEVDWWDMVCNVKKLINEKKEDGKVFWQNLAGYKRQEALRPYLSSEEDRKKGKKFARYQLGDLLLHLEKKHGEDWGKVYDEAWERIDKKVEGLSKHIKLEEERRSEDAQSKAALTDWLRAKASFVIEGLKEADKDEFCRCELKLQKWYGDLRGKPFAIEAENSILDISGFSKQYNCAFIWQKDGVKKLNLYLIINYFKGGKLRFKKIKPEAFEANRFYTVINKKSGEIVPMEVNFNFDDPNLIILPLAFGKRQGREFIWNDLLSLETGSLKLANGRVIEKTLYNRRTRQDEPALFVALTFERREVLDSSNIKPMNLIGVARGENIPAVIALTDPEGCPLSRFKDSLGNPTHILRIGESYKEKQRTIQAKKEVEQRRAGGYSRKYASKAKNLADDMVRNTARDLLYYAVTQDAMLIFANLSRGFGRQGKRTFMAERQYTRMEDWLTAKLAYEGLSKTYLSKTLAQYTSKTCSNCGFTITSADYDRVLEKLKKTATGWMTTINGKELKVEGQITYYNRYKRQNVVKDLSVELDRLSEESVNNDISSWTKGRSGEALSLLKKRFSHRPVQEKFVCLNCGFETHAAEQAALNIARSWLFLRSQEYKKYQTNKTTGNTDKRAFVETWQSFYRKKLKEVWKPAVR
The settings on record: tags: DNMT3A CD, DNMT3L ID, ZNF10 KRAB fusion, NLS.

Another data set has as its target T2, ELXR2-ZNF10 (#2.B) (synthetic construct).
T2 chain: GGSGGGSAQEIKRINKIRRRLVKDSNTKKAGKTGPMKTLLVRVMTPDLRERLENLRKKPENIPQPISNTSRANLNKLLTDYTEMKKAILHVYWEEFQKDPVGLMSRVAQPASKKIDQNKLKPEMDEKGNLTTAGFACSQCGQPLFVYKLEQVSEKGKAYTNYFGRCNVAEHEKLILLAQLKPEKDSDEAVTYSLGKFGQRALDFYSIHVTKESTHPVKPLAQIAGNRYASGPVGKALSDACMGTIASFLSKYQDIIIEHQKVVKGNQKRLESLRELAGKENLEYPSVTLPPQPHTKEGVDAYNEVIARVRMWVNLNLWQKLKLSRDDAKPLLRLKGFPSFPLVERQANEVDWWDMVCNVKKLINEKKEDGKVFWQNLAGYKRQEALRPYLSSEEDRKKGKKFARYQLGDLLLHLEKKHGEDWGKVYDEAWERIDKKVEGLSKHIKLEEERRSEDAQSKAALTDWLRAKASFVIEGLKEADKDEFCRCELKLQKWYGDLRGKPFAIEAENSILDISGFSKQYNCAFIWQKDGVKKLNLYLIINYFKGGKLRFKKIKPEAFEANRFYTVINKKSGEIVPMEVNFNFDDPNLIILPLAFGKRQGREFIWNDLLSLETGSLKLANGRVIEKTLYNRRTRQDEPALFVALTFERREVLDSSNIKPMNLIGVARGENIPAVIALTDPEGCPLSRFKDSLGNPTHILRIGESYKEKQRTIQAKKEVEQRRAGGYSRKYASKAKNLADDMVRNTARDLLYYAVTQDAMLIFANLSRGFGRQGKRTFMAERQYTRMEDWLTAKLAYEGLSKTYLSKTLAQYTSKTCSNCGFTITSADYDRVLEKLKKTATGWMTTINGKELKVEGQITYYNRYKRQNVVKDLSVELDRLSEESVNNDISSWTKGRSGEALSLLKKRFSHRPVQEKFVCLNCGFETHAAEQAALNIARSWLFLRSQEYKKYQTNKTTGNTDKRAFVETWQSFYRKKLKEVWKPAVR
The settings on record: tags: DNMT3A CD, DNMT3L ID, ZNF10 KRAB fusion, NLS.

Another data set deals with T3, ELXR1-ZIM3 (#1.A) (synthetic construct).
T3 chain: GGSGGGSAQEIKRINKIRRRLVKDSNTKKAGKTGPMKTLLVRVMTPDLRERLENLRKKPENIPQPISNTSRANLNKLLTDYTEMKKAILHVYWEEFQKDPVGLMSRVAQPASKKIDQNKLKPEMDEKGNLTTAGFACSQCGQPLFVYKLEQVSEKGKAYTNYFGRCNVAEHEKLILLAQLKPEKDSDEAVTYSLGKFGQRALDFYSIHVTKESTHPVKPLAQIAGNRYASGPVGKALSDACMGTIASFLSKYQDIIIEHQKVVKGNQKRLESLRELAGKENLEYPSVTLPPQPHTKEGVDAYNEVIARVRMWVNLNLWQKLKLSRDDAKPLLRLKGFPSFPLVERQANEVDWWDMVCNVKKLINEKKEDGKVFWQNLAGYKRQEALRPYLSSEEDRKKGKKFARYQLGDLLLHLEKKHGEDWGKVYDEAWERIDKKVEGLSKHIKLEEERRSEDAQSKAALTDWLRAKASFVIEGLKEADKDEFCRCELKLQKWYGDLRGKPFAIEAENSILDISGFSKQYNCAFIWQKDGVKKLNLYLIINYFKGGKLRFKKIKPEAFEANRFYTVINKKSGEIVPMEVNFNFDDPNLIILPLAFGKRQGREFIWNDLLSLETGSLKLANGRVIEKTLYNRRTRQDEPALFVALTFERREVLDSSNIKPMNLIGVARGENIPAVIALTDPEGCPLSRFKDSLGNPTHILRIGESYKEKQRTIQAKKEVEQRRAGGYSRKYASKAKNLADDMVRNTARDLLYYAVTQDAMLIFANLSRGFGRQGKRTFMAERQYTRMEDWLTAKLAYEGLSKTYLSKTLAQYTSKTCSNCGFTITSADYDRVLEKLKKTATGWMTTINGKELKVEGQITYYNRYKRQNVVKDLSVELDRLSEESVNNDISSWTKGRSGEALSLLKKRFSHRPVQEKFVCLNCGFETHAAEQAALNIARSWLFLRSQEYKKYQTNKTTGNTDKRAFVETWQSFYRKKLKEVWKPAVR
The settings on record: tags: DNMT3A CD, DNMT3L ID, ZIM3 KRAB fusion, NLS.

The target of the next data set is T4, ELXR3-ZIM3 (#3.A) (synthetic construct).
T4 chain: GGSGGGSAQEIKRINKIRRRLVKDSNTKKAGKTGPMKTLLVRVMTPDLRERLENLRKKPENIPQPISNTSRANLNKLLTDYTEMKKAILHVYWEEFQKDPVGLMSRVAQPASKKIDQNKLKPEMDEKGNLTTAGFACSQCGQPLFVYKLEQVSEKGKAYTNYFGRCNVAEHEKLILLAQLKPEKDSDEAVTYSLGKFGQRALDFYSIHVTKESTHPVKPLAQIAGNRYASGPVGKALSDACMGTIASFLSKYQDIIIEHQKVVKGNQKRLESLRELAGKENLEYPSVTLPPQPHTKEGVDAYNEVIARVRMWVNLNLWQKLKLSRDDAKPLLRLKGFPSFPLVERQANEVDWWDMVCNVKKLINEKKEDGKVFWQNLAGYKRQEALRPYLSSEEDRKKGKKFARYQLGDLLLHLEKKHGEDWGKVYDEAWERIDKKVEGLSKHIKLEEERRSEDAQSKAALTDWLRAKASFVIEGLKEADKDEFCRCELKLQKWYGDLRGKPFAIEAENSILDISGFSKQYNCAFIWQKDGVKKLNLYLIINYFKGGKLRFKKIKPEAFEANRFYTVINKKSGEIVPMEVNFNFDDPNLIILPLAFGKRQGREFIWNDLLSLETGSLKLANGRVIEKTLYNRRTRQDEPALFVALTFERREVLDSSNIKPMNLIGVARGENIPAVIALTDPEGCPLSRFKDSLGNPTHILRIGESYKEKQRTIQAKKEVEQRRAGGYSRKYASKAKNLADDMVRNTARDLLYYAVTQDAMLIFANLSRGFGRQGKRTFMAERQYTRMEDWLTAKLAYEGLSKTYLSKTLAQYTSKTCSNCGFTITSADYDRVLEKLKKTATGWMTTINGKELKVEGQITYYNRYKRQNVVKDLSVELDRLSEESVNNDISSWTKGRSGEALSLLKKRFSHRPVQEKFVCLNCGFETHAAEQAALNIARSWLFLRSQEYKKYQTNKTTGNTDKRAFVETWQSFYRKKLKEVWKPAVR
The conditions noted are these: tags: DNMT3A CD, DNMT3L ID, ZIM3 KRAB fusion, NLS.

The target of another data set is T5, ELXR1-ZNF10 (#1.B) (synthetic construct).
T5 chain: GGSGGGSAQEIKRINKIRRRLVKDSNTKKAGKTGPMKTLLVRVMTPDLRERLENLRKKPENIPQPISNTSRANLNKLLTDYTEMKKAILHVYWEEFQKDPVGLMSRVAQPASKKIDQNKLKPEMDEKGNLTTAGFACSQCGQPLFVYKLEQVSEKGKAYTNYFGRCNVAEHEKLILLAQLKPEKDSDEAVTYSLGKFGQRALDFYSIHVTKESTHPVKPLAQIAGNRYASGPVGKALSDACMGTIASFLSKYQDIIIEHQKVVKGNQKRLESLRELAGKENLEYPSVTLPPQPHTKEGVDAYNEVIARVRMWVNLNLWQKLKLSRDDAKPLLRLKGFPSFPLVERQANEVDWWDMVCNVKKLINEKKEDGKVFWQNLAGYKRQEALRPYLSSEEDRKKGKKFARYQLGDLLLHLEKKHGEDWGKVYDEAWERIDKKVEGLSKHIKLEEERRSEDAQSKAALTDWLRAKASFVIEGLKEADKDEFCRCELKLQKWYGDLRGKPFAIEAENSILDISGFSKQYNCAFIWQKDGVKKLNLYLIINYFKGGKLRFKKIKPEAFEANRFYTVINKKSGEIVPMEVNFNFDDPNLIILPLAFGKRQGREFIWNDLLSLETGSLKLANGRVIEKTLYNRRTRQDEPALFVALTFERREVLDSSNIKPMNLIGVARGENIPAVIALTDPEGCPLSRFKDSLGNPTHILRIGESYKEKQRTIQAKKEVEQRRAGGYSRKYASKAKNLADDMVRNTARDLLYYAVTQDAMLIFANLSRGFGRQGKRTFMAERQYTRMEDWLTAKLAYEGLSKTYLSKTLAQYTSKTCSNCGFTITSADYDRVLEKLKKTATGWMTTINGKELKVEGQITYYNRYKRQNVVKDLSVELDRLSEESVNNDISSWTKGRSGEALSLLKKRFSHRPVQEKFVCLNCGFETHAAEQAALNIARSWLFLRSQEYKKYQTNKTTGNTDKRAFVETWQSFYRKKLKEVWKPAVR
The settings on record: tags: DNMT3A CD, DNMT3L ID, ZNF10 KRAB fusion, NLS.

Results on one molecule are retold here after patent US20240392271, “ENGINEERED CASX REPRESSOR SYSTEMS” (Scribe Therapeutics Inc., published 2024).

B1: gRNA scaffold 174 + spacer 7.37 ; B2M target 7.37 (ssRNA ; dsDNA)
RNA: ACUGGCGCUUUUAUCUGAUUACUUUGAGAGCCAUCACCAGCGACUAUGUCGUAGUGGGUAAAGCUCCCUCUUCGGAGGGAGCAUCAAAGGGCCGAGAUGUCUCGCUCCG
DNA 1: GGCCGAGATGTCTCGCTCCG
DNA 2: CGGAGCGAGACATCTCGGCC
For B1, the activity in the data set with ELXR3-ZNF10 (#3.B) is 17.1 % HLA-negative cells; with ELXR2-ZNF10 (#2.B), 36.9 % HLA-negative cells; in the data set with ELXR1-ZIM3 (#1.A) it was 73.7 % HLA-negative cells; with ELXR3-ZIM3 (#3.A), 17.5 % HLA-negative cells; with ELXR1-ZNF10 (#1.B), 70 % HLA-negative cells.
